Assay results reported in paper PMC4051428 (Organic Letters, 2014).

B1: ChxH (Streptomyces sp. YIM 56141) (protein)
chain: MATENSRTPAPSGELAGRRAVVTGGSRGIGAAIARELLDAGAHVVISARGEAPDAPPGAVFVPADLSTRDGVRHFADTARELLGGVDIIVNNAGGCRSFQSVLELENDWQYTMDINFLAAVRLNAALVPAMREHGGVVVHVSSIATVAAYPNLLHYAAAKSALETYSKGLSAELAPDGIRVVSVCLGNVETPASKTARTRIVELHGGDADDLTGQWAAEIPLGRLGDPRDIADAVRFLVSPRASWITGSNIVIDGGKTASLC

What was measured:
ChxH = target: T1, ChxH (Streptomyces sp. YIM 56141, UniProt I7D037); assay: steady-state kinetics, initial velocity, Michaelis-Menten; conditions: read-out: apparent KM; saturating NADP+; reverse reaction 1 to 10
T1 sequence (I7D037 1-262): B1 chain

purified protein [1] = substrate: NC(=O)c1ccc[n+]([C@@H]2O[C@H](COP(=O)(O)OP(=O)(O)OC[C@H]3O[C@@H](n4cnc5c(N)ncnc54)[C@H](O)[C@@H]3O)[C@@H](O)[C@H]2O)c1; assay: purified protein; conditions: saturating 1; reverse reaction 1 to 10; varied: cofactor
purified protein [2] = substrate: NC(=O)c1ccc[n+]([C@@H]2O[C@H](COP(=O)(O)OP(=O)(O)OC[C@H]3O[C@@H](n4cnc5c(N)ncnc54)[C@H](OP(=O)(O)O)[C@@H]3O)[C@@H](O)[C@H]2O)c1; assay: purified protein; conditions: saturating 1; reverse reaction 1 to 10; varied: cofactor

Row | Molecule | Km (ChxH) | Km (purified protein [1]) | kcat (purified protein [1]) | Km (purified protein [2]) | kcat (purified protein [2])
1 | C[C@@H]1C[C@@H]([C@H](O)CC2CC(=O)NC(=O)C2)C(=O)[C@@H](C)C1 [compound 1, Cycloheximide] | 99 ± 7 µM | – | – | – | –
2 | B1 | – | 233 ± 37 µM | 13 ± 3 min^–1 | 76 ± 5 µM | 387 ± 23 min^–1
